In IntAct's records for PubMed 30126976:

Assays:
scrib_human SCRIB [1] = molecular target: scrib_human SCRIB (UniProt Q14160)
scrib_human SCRIB [2] = molecular target: scrib_human SCRIB (UniProt Q14160); remark: listed apart in the source
dlg1_human DLG1 = dlg1_human DLG1 (UniProt Q12959)
ks6a2_human RPS6KA2 [3] = molecular target: ks6a2_human RPS6KA2 (UniProt Q15349)
crcm_human MCC [4] = molecular target: crcm_human MCC (UniProt P23508)
crcm_human MCC [5] = molecular target: crcm_human MCC (UniProt P23508); remark: listed apart in the source
ks6a2_human RPS6KA2 [6] = molecular target: ks6a2_human RPS6KA2 (UniProt Q15349); remark: listed apart in the source
scrib_human SCRIB [7] = molecular target: scrib_human SCRIB (UniProt Q14160); remark: listed apart in the source

crcm_human MCC, sequence (P23508 whole entry): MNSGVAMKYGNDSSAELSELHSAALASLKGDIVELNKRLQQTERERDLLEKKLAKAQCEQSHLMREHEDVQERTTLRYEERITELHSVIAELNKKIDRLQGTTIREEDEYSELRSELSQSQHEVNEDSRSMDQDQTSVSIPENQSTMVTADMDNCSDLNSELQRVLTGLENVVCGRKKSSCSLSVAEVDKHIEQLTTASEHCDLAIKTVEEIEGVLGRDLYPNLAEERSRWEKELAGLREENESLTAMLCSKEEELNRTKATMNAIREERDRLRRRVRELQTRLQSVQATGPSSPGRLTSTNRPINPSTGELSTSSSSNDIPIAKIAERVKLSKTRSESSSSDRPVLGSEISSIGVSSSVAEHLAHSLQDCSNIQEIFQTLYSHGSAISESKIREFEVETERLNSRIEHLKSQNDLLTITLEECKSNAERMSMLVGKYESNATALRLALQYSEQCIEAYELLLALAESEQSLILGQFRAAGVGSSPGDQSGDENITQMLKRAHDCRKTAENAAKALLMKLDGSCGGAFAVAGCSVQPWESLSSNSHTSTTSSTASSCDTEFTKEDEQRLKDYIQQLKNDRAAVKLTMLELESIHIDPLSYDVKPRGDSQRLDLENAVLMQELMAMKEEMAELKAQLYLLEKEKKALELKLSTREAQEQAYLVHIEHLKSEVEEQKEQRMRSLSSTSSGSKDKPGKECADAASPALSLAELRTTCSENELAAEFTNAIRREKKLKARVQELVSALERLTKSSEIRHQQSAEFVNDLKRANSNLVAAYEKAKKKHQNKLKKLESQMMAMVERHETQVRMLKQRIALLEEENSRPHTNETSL
ks6a2_human RPS6KA2, sequence (Q15349 whole entry): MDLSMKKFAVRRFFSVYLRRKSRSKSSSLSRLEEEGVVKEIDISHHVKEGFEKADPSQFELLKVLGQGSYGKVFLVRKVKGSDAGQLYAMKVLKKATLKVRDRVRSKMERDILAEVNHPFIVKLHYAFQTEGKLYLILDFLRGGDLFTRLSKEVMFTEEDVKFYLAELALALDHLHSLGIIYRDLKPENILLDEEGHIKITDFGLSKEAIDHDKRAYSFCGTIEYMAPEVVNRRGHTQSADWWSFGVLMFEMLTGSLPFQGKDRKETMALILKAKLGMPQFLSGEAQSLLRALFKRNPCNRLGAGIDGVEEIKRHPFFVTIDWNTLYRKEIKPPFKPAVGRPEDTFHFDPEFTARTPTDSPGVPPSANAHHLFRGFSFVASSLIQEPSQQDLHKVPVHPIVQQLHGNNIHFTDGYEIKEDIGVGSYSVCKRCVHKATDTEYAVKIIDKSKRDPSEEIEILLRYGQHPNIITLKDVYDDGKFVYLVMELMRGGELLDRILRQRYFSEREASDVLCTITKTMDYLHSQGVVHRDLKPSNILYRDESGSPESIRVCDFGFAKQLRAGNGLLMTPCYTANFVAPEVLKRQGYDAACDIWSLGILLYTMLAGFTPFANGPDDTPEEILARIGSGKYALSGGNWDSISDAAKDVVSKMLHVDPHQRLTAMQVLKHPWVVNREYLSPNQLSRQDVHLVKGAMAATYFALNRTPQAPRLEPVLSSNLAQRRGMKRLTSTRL
scrib_human SCRIB, sequence (Q14160 whole entry): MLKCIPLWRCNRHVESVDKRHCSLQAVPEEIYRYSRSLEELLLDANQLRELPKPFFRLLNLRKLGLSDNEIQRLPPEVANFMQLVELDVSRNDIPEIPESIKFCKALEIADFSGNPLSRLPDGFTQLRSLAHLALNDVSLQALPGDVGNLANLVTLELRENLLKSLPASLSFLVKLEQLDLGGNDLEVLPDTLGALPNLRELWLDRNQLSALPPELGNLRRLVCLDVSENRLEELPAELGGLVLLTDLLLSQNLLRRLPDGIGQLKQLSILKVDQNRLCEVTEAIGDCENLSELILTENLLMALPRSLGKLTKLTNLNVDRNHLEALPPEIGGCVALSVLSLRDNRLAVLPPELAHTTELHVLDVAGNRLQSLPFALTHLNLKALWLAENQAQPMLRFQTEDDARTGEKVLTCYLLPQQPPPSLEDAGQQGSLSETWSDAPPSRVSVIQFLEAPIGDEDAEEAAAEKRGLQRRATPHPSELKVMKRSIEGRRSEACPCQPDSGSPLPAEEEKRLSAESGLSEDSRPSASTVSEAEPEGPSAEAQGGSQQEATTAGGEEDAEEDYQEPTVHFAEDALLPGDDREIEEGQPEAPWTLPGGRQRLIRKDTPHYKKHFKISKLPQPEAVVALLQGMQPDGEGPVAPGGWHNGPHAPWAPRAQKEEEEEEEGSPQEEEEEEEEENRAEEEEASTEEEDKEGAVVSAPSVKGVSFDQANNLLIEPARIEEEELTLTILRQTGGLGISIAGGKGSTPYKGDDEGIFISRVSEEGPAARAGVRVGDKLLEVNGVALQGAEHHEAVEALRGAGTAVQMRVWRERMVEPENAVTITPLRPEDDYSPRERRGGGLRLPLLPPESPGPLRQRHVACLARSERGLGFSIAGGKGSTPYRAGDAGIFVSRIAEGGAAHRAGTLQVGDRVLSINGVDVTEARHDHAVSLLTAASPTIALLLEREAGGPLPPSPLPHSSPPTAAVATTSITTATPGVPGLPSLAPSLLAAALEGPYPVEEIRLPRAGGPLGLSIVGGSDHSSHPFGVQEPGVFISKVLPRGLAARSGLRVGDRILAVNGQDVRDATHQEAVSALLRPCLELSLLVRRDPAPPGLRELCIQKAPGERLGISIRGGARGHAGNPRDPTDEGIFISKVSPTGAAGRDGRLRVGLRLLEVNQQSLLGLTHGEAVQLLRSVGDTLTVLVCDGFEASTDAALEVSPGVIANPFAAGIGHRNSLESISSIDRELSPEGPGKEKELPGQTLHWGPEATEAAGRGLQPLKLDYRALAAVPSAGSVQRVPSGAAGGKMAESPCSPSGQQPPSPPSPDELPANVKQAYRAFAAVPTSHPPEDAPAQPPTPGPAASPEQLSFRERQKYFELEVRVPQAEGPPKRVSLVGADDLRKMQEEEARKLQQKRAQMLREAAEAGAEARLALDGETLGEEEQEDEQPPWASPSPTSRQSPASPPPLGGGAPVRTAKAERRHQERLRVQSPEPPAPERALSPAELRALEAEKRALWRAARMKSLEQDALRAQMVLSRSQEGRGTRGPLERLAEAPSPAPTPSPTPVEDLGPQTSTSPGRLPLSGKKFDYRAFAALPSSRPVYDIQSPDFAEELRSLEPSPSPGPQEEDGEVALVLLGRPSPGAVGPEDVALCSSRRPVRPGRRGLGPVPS
Wilms tumor protein 1-interacting protein (Homo sapiens), A6NIX2 S422E, sequence (A6NIX2 whole entry S422E): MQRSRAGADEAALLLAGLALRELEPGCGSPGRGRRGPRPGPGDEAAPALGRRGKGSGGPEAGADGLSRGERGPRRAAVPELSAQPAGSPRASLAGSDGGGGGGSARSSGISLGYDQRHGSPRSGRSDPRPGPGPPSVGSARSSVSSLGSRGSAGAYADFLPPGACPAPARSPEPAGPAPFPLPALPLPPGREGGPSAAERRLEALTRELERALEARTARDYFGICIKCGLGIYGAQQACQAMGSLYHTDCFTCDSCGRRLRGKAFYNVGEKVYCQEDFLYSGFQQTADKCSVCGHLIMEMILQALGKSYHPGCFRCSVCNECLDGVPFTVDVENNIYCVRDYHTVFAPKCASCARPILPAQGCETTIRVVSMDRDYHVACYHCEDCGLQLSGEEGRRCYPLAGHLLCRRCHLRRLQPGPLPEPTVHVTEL
dlg1_human DLG1, sequence (Q12959 whole entry, looked up): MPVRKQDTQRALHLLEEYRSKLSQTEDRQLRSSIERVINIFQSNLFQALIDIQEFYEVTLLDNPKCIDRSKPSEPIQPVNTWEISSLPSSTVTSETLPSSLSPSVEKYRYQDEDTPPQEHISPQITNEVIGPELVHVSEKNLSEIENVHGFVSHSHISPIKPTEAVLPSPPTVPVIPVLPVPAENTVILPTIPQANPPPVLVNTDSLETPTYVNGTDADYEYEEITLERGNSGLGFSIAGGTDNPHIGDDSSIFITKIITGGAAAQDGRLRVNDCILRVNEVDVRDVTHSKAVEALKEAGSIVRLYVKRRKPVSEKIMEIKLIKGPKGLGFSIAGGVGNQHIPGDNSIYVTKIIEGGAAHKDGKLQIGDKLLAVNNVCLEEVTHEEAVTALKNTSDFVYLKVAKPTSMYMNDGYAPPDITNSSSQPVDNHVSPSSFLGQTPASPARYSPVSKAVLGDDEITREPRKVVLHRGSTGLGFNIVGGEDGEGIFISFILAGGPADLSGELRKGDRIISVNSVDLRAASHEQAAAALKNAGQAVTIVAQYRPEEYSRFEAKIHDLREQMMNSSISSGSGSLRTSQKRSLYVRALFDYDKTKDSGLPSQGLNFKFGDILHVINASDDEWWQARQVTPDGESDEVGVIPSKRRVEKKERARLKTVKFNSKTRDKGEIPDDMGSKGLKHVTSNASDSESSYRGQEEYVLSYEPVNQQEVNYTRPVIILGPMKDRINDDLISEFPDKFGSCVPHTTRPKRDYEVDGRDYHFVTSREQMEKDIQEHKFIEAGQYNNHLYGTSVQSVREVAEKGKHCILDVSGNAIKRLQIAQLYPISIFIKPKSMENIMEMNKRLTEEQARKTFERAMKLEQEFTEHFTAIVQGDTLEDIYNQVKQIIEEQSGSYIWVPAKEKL

## Asparagine synthetase domain-containing protein 1 (Homo sapiens), Q9NWL6 T641E
scrib_human SCRIB [1]
  effect of a mutation on the interaction: disrupting interaction strength

## Protein TANC1 (Homo sapiens), Q9C0D5 S1855E
scrib_human SCRIB [2]
  effect of a mutation on the interaction: decreasing interaction strength
dlg1_human DLG1
  effect of a mutation on the interaction: decreasing interaction strength

## Protein scribble homolog (Homo sapiens), Q14160 A743R
ks6a2_human RPS6KA2 [3]
  effect of a mutation on the interaction: increasing interaction strength

## Protein scribble homolog (Homo sapiens), Q14160 A743R;R762A
crcm_human MCC [4]
  effect of a mutation on the interaction: with no effect
crcm_human MCC [5]
  effect of a mutation on the interaction: decreasing interaction strength
ks6a2_human RPS6KA2 [3]
  effect of a mutation on the interaction: decreasing interaction strength

## Protein scribble homolog (Homo sapiens), Q14160 K746A
ks6a2_human RPS6KA2 [6]
  effect of a mutation on the interaction: increasing interaction strength
ks6a2_human RPS6KA2 [3]
  effect of a mutation on the interaction: decreasing interaction strength

## Protein scribble homolog (Homo sapiens), Q14160 R762A
ks6a2_human RPS6KA2 [6]
  effect of a mutation on the interaction: increasing interaction strength
crcm_human MCC [5]
  effect of a mutation on the interaction: decreasing interaction strength
ks6a2_human RPS6KA2 [3]
  effect of a mutation on the interaction: decreasing interaction strength

## Protein scribble homolog (Homo sapiens), Q14160 R801A
ks6a2_human RPS6KA2 [3]
  effect of a mutation on the interaction: decreasing interaction strength

## Wilms tumor protein 1-interacting protein (Homo sapiens), A6NIX2 S422E
scrib_human SCRIB [7]
  effect of a mutation on the interaction: with no effect
